Test results from article PMC12597282.

Molecular target: E546N mutant human inducible NOS oxygenase/FMN (oxyFMN) construct (human) (UniProt P35228)
Test: cross-linking; DSBU 250 uM with 5 uM iNOS oxyFMN (co-purified with CaM), 20 mM HEPES, 100 mM NaCl, 1 mM CaCl2, pH 7.5, 30 min, room temperature; SDS-PAGE, dimeric band digested in gel; LC-MS/MS on timsTOF (DDA-PASEF, then PRM-PASEF for quantitation), lysine-lysine cross-links only

Chain of UniProt P35228 (P35228 71-723 E546N): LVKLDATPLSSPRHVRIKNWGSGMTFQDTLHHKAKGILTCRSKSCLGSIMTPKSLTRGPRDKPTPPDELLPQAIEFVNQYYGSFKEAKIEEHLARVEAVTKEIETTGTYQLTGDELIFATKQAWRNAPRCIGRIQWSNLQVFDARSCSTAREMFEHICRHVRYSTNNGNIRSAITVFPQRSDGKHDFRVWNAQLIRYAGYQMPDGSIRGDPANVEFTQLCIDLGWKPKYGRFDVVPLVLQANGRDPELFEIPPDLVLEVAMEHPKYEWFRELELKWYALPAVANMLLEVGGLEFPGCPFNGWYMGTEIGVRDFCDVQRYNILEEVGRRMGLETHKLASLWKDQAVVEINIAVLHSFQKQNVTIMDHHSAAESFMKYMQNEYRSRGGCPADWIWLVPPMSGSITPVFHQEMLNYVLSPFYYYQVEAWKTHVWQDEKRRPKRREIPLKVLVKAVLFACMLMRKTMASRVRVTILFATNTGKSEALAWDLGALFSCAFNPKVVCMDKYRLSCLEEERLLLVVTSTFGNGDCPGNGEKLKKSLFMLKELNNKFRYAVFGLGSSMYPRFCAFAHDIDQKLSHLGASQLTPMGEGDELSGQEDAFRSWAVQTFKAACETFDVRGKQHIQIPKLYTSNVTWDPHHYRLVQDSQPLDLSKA

log2 fold-change (E546N/wt) of the abundance of cross-link 75–516 CaM-helix (intra) (log2(E546N/wt)): -1.04
Substance: calmodulin (from UniProt P0DP23 1-149) (natural protein)
